Results as given in the RNAGym collection of RNA variant scans (doi:10.1021/acssynbio.7b00057).

B1: Pistol ribozyme (parent)
chain: GGGUCGUUGUUCCAUAAUCGCGUGGAUAUGGCACGCAAGUUUCUACCGGGCACCGUAAAUGUCCGACUGGAGCCGUUCGGGCGGCUAUAAACAGACCUCAGGCCCGAAGCGUGGCGGCACCUGCCGCCGGUGGUAAAAAAGAUCGGAAGAGCACACGUCU

Variants of: B1
Test: aptazyme ON/OFF ratio, guanine; higher = stronger switching; co-transcriptional cleavage with and without guanine

Variant | aptazyme ON/OFF ratio
GGGUCGAAGAAUCAUAAUCGCGUGGAUAUGGCACGCAAGUUUCUACCGGGCACCGUAAAUGUCCGACUGGAGCCGUUCGGGCGGCUAUAAACAGACCUCAGGCCCGAAGCGUGGCGGCACCUGCCGCCGGUGGUAAAAAAGAUCGGAAGAGCACACGUCU [U7A U8A U10A U11A C12U] | 1.2
GGGUCGAAGAAAUAUAAUCGCGUGGAUAUGGCACGCAAGUUUCUACCGGGCACCGUAAAUGUCCGACUGGAGCCGUUCGGGCGGCUAUAAACAGACCUCAGGCCCGAAGCGUGGCGGCACCUGCCGCCGGUGGUAAAAAAGAUCGGAAGAGCACACGUCU [U7A U8A U10A U11A C12A C13U] | 1.25
GGGUCGAAGAAAGAUAAUCGCGUGGAUAUGGCACGCAAGUUUCUACCGGGCACCGUAAAUGUCCGACUGGAGCCGUUCGGGCGGCUAUAAACAGACCUCAGGCCCGAAGCGUGGCGGCACCUGCCGCCGGUGGUAAAAAAGAUCGGAAGAGCACACGUCU [U7A U8A U10A U11A C12A C13G] | 1.19
GGGUCGAAGAAAAAUAAUCGCGUGGAUAUGGCACGCAAGUUUCUACCGGGCACCGUAAAUGUCCGACUGGAGCCGUUCGGGCGGCUAUAAACAGACCUCAGGCCCGAAGCGUGGCGGCACCUGCCGCCGGUGGUAAAAAAGAUCGGAAGAGCACACGUCU [U7A U8A U10A U11A C12A C13A] | 1.12
GGGUCGAAGAUGUAUAAUCGCGUGGAUAUGGCACGCAAGUUUCUACCGGGCACCGUAAAUGUCCGACUGGAGCCGUUCGGGCGGCUAUAAACAGACCUCAGGCCCGAAGCGUGGCGGCACCUGCCGCCGGUGGUAAAAAAGAUCGGAAGAGCACACGUCU [U7A U8A U10A C12G C13U] | 1.23
GGGUCGAAGAUGGAUAAUCGCGUGGAUAUGGCACGCAAGUUUCUACCGGGCACCGUAAAUGUCCGACUGGAGCCGUUCGGGCGGCUAUAAACAGACCUCAGGCCCGAAGCGUGGCGGCACCUGCCGCCGGUGGUAAAAAAGAUCGGAAGAGCACACGUCU [U7A U8A U10A C12G C13G] | 1.17
GGGUCGAAGACGCAUAAUCGCGUGGAUAUGGCACGCAAGUUUCUACCGGGCACCGUAAAUGUCCGACUGGAGCCGUUCGGGCGGCUAUAAACAGACCUCAGGCCCGAAGCGUGGCGGCACCUGCCGCCGGUGGUAAAAAAGAUCGGAAGAGCACACGUCU [U7A U8A U10A U11C C12G] | 1.1
GGGUCGAAGACUCAUAAUCGCGUGGAUAUGGCACGCAAGUUUCUACCGGGCACCGUAAAUGUCCGACUGGAGCCGUUCGGGCGGCUAUAAACAGACCUCAGGCCCGAAGCGUGGCGGCACCUGCCGCCGGUGGUAAAAAAGAUCGGAAGAGCACACGUCU [U7A U8A U10A U11C C12U] | 1.03
GGGUCGAAGACACAUAAUCGCGUGGAUAUGGCACGCAAGUUUCUACCGGGCACCGUAAAUGUCCGACUGGAGCCGUUCGGGCGGCUAUAAACAGACCUCAGGCCCGAAGCGUGGCGGCACCUGCCGCCGGUGGUAAAAAAGAUCGGAAGAGCACACGUCU [U7A U8A U10A U11C C12A] | 1.04
GGGUCGAAGAACCAUAAUCGCGUGGAUAUGGCACGCAAGUUUCUACCGGGCACCGUAAAUGUCCGACUGGAGCCGUUCGGGCGGCUAUAAACAGACCUCAGGCCCGAAGCGUGGCGGCACCUGCCGCCGGUGGUAAAAAAGAUCGGAAGAGCACACGUCU [U7A U8A U10A U11A] | 1.18
GGGUCGAAGACCCAUAAUCGCGUGGAUAUGGCACGCAAGUUUCUACCGGGCACCGUAAAUGUCCGACUGGAGCCGUUCGGGCGGCUAUAAACAGACCUCAGGCCCGAAGCGUGGCGGCACCUGCCGCCGGUGGUAAAAAAGAUCGGAAGAGCACACGUCU [U7A U8A U10A U11C] | 0.996
GGGUCGAAGAAUUAUAAUCGCGUGGAUAUGGCACGCAAGUUUCUACCGGGCACCGUAAAUGUCCGACUGGAGCCGUUCGGGCGGCUAUAAACAGACCUCAGGCCCGAAGCGUGGCGGCACCUGCCGCCGGUGGUAAAAAAGAUCGGAAGAGCACACGUCU [U7A U8A U10A U11A C12U C13U] | 1.14
GGGUCGAAGAAUGAUAAUCGCGUGGAUAUGGCACGCAAGUUUCUACCGGGCACCGUAAAUGUCCGACUGGAGCCGUUCGGGCGGCUAUAAACAGACCUCAGGCCCGAAGCGUGGCGGCACCUGCCGCCGGUGGUAAAAAAGAUCGGAAGAGCACACGUCU [U7A U8A U10A U11A C12U C13G] | 1.24
GGGUCGAAGAAUAAUAAUCGCGUGGAUAUGGCACGCAAGUUUCUACCGGGCACCGUAAAUGUCCGACUGGAGCCGUUCGGGCGGCUAUAAACAGACCUCAGGCCCGAAGCGUGGCGGCACCUGCCGCCGGUGGUAAAAAAGAUCGGAAGAGCACACGUCU [U7A U8A U10A U11A C12U C13A] | 1.33
GGGUCGAAGACUAAUAAUCGCGUGGAUAUGGCACGCAAGUUUCUACCGGGCACCGUAAAUGUCCGACUGGAGCCGUUCGGGCGGCUAUAAACAGACCUCAGGCCCGAAGCGUGGCGGCACCUGCCGCCGGUGGUAAAAAAGAUCGGAAGAGCACACGUCU [U7A U8A U10A U11C C12U C13A] | 1.11
GGGUCGAAGACAGAUAAUCGCGUGGAUAUGGCACGCAAGUUUCUACCGGGCACCGUAAAUGUCCGACUGGAGCCGUUCGGGCGGCUAUAAACAGACCUCAGGCCCGAAGCGUGGCGGCACCUGCCGCCGGUGGUAAAAAAGAUCGGAAGAGCACACGUCU [U7A U8A U10A U11C C12A C13G] | 1.12
GGGUCGAAGACAUAUAAUCGCGUGGAUAUGGCACGCAAGUUUCUACCGGGCACCGUAAAUGUCCGACUGGAGCCGUUCGGGCGGCUAUAAACAGACCUCAGGCCCGAAGCGUGGCGGCACCUGCCGCCGGUGGUAAAAAAGAUCGGAAGAGCACACGUCU [U7A U8A U10A U11C C12A C13U] | 1.11
GGGUCGAAGACAAAUAAUCGCGUGGAUAUGGCACGCAAGUUUCUACCGGGCACCGUAAAUGUCCGACUGGAGCCGUUCGGGCGGCUAUAAACAGACCUCAGGCCCGAAGCGUGGCGGCACCUGCCGCCGGUGGUAAAAAAGAUCGGAAGAGCACACGUCU [U7A U8A U10A U11C C12A C13A] | 1.04
